Data as given in IntAct's records for PubMed 31515488.

B1: Ribosome-recycling factor, mitochondrial (Homo sapiens), Q96E11 (parent)
chain: MALGLKCFRMVHPTFRNYLAASIRPVSEVTLKTVHERQHGHRQYMAYSAVPVRHFATKKAKAKGKGQSQTRVNINAALVEDIINLEEVNEEMKSVIEALKDNFNKTLNIRTSPGSLDKIAVVTADGKLALNQISQISMKSPQLILVNMASFPECTAAAIKAIRESGMNLNPEVEGTLIRVPIPQVTREHREMLVKLAKQNTNKAKDSLRKVRTNSMNKLKKSKDTVSEDTIRLIEKQISQMADDTVAELDRHLAVKTKELLG
partner: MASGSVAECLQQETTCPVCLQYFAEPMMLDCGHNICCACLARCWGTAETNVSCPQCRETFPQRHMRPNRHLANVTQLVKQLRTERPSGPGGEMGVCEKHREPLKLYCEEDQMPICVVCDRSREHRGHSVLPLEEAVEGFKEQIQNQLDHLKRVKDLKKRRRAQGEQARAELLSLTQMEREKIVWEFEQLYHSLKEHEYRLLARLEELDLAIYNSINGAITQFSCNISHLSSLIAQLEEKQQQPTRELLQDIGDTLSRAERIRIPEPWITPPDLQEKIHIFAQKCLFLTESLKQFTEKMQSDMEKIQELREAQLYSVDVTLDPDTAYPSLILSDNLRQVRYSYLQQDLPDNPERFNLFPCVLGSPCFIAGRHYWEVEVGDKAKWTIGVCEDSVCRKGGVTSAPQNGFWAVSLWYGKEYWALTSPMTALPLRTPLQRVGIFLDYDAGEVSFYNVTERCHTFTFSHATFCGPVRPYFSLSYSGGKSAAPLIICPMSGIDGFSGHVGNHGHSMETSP
B2: E3 ubiquitin-protein ligase MYLIP (Homo sapiens), Q8WY64 (parent)
chain: MLCYVTRPDAVLMEVEVEAKANGEDCLNQVCRRLGIIEVDYFGLQFTGSKGESLWLNLRNRISQQMDGLAPYRLKLRVKFFVEPHLILQEQTRHIFFLHIKEALLAGHLLCSPEQAVELSALLAQTKFGDYNQNTAKYNYEELCAKELSSATLNSIVAKHKELEGTSQASAEYQVLQIVSAMENYGIEWHSVRDSEGQKLLIGVGPEGISICKDDFSPINRIAYPVVQMATQSGKNVYLTVTKESGNSIVLLFKMISTRAASGLYRAITETHAFYRCDTVTSAVMMQYSRDLKGHLASLFLNENINLGKKYVFDIKRTSKEVYDHARRALYNAGVVDLVSRNNQSPSHSPLKSSESSMNCSSCEGLSCQQTRVLQEKLRKLKEAMLCMVCCEEEINSTFCPCGHTVCCESCAAQLQSCPVCRSRVEHVQHVYLPTHTSLLNLTVI
partner: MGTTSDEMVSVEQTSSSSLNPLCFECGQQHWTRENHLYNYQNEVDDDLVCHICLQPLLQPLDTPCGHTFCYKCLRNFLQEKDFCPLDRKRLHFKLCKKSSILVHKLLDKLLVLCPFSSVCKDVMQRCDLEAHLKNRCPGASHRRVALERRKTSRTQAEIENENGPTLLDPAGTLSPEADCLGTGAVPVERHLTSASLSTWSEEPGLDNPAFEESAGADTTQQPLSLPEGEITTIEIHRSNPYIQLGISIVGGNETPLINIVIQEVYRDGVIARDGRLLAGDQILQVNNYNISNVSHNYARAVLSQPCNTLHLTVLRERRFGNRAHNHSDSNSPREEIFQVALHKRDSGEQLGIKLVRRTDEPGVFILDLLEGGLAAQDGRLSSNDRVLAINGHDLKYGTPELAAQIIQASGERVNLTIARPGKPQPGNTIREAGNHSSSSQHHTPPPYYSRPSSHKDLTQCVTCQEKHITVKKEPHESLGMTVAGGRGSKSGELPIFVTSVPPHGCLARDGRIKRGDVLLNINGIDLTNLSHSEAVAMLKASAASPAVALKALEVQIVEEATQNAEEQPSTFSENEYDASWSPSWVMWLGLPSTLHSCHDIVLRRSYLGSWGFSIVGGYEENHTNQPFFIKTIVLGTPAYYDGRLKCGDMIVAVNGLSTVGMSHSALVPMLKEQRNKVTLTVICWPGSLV
B3: Cyclin-D1-binding protein 1 (Homo sapiens), O95273 (parent)
chain: MASATAPAAAVPTLASPLEQLRHLAEELRLLLPRVRVGEAQETTEEFNREMFWRRLNEAAVTVSREATTLTIVFSQLPLPSPQETQKFCEQVHAAIKAFIAVYYLLPKDQGITLRKLVRGATLDIVDGMAQLMEVLSVTPTQSPENNDLISYNSVWVACQQMPQIPRDNKAAALLMLTKNVDFVKDAHEEMEQAVEECDPYSGLLNDTEENNSDNHNHEDDVLGFPSNQDLYWSEDDQELIIPCLALVRASKACLKKIRMLVAENGKKDQVAQLDDIVDISDEISPSVDDLALSIYPPMCHLTVRINSAKLVSVLKKALEITKASHVTPQPEDSWIPLLINAIDHCMNRIKELTQSELEL
partner: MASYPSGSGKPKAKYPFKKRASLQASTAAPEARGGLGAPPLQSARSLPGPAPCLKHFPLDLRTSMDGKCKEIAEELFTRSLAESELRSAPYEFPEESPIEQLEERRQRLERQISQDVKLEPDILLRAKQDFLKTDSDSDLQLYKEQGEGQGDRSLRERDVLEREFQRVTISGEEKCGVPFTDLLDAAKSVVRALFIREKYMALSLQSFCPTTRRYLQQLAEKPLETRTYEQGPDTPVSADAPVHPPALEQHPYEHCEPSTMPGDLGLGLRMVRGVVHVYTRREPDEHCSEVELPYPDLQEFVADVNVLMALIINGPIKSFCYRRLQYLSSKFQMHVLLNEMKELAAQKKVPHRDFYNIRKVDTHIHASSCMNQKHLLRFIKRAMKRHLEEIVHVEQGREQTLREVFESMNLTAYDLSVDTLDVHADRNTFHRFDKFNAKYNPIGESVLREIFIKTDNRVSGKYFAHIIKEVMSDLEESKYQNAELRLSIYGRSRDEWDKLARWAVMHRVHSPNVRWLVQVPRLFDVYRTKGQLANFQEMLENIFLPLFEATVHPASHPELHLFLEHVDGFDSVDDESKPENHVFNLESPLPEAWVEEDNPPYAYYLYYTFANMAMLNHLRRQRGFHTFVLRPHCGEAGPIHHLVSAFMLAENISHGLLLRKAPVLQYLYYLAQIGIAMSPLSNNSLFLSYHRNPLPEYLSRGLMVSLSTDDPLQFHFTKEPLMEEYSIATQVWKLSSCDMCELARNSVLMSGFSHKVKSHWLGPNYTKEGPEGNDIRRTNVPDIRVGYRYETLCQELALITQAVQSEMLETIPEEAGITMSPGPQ
B4: Histone-lysine N-methyltransferase SMYD1 (Homo sapiens), Q8NB12 (parent)
chain: MTIGRMENVEVFTAEGKGRGLKATKEFWAADIIFAERAYSAVVFDSLVNFVCHTCFKRQEKLHRCGQCKFAHYCDRTCQKDAWLNHKNECSAIKRYGKVPNENIRLAARIMWRVEREGTGLTEGCLVSVDDLQNHVEHFGEEEQKDLRVDVDTFLQYWPPQSQQFSMQYISHIFGVINCNGFTLSDQRGLQAVGVGIFPNLGLVNHDCWPNCTVIFNNGNHEAVKSMFHTQMRIELRALGKISEGEELTVSYIDFLNVSEERKRQLKKQYYFDCTCEHCQKKLKDDLFLGVKDNPKPSQEVVKEMIQFSKDTLEKIDKARSEGLYHEVVKLCRECLEKQEPVFADTNIYMLRMLSIVSEVLSYLQAFEEASFYARRMVDGYMKLYHPNNAQLGMAVMRAGLTNWHAGNIEVGHGMICKAYAILLVTHGPSHPITKDLEAMRVQTEMELRMFRQNEFMYYKMREAALNNQPMQVMAEPSNEPSPALFHKKQ
partner: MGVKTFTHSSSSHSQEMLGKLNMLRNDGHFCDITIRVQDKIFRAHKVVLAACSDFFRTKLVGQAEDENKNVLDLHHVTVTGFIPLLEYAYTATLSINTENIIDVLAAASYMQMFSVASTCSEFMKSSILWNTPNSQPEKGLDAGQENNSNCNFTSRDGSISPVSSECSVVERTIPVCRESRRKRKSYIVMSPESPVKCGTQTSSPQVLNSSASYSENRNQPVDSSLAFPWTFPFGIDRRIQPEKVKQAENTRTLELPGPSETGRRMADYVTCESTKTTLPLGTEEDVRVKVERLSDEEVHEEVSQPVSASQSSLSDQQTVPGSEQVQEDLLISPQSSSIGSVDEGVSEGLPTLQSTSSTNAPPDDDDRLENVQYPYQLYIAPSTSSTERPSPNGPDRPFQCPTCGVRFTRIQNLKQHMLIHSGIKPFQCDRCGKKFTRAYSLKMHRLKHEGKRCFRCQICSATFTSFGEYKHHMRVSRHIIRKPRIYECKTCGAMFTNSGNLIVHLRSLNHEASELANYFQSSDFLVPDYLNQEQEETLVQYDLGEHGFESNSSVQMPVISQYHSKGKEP
B5: Epidermal growth factor receptor substrate 15-like 1 (Homo sapiens), Q9UBC2 (parent)
chain: MAAPLIPLSQQIPTGNSLYESYYKQVDPAYTGRVGASEAALFLKKSGLSDIILGKIWDLADPEGKGFLDKQGFYVALRLVACAQSGHEVTLSNLNLSMPPPKFHDTSSPLMVTPPSAEAHWAVRVEEKAKFDGIFESLLPINGLLSGDKVKPVLMNSKLPLDVLGRVWDLSDIDKDGHLDRDEFAVAMHLVYRALEKEPVPSALPPSLIPPSKRKKTVFPGAVPVLPASPPPKDSLRSTPSHGSVSSLNSTGSLSPKHSLKQTQPTVNWVVPVADKMRFDEIFLKTDLDLDGYVSGQEVKEIFMHSGLTQNLLAHIWALADTRQTGKLSKDQFALAMYFIQQKVSKGIDPPQVLSPDMVPPSERGTPGPDSSGSLGSGEFTGVKELDDISQEIAQLQREKYSLEQDIREKEEAIRQKTSEVQELQNDLDRETSSLQELEAQKQDAQDRLDEMDQQKAKLRDMLSDVRQKCQDETQMISSLKTQIQSQESDLKSQEDDLNRAKSELNRLQQEETQLEQSIQAGRVQLETIIKSLKSTQDEINQARSKLSQLHESRQEAHRSLEQYDQVLDGAHGASLTDLANLSEGVSLAERGSFGAMDDPFKNKALLFSNNTQELHPDPFQTEDPFKSDPFKGADPFKGDPFQNDPFAEQQTTSTDPFGGDPFKESDPFRGSATDDFFKKQTKNDPFTSDPFTKNPSLPSKLDPFESSDPFSSSSVSSKGSDPFGTLDPFGSGSFNSAEGFADFSQMSKPPPSGPFTSSLGGAGFSDDPFKSKQDTPALPPKKPAPPRPKPPSGKSTPVSQLGSADFPEAPDPFQPLGADSGDPFQSKKGFGDPFSGKDPFVPSSAAKPSKASASGFADFTSVS
partner: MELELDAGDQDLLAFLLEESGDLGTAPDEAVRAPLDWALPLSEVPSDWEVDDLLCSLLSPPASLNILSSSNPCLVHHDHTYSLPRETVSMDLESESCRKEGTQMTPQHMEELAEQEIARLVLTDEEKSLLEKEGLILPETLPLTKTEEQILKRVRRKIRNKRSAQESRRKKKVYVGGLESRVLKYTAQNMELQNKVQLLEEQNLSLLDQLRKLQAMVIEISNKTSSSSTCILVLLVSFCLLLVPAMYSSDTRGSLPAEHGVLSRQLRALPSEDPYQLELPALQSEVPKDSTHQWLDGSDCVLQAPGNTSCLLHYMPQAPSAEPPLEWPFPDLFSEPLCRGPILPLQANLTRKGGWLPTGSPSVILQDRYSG

Variants of: B1
Conditions: with tri27_human TRIM27, P14373

| Variant | effect of a mutation on the interaction |
| --- | --- |
| M216V | with no effect |

Variants of: B2
Conditions: with lnx2_human LNX2, Q8N448

| Variant | effect of a mutation on the interaction |
| --- | --- |
| N342S | with no effect |

Variants of: B3
Conditions: with ampd2_human AMPD2, Q01433

| Variant | effect of a mutation on the interaction |
| --- | --- |
| I277T | disrupting interaction strength |

Variants of: B4
Conditions: with zbt44_human ZBTB44, Q8NCP5

| Variant | effect of a mutation on the interaction |
| --- | --- |
| Q164P | with no effect |
| H427L | with no effect |
| R333Q | with no effect |

Variants of: B5
Conditions: with creb3_human CREB3, O43889

| Variant | effect of a mutation on the interaction |
| --- | --- |
| P356L | with no effect |
